In US20220396618A1 (RESEARCH FOUNDATION FOR THE STATE UNIVERSITY OF NEW YORK, published 2022):

Assays:
[1] = biological target: T1, human RAGE extracellular domain (human, UniProt Q15109 23-342); assay: ELISA, apparent Kd
T1 construct: extracellular domain; Immobilized on ELISA plates; also called WT human RAGE

[2] = biological target: murine RAGE (murine, UniProt Q62151 23-231, limits assumed); assay: ELISA, apparent Kd
[3] = biological target: T2, murine RAGE V-C1 domain (murine, UniProt Q62151 23-231, limits assumed); assay: ELISA, apparent Kd
T2 construct: domain: V-C1 domain; Used as the immunogen and as the ELISA antigen; also called mVC1; WT mVC1
T2 sequence (Q62151 23-231 limits assumed): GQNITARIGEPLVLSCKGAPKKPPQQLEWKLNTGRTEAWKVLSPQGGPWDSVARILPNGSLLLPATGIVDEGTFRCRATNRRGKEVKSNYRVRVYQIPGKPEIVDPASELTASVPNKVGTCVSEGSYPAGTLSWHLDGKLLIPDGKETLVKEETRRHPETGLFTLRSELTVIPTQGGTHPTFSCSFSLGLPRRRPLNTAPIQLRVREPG

[4] = biological target: T3, human RAGE R216A-R218A mutant (human, UniProt Q15109 23-342); assay: ELISA on immobilized antigen
T3 construct: extracellular domain; Mutant of the human RAGE extracellular domain, immobilized for ELISA
T3 sequence (Q15109 23-342 R216A/R218A): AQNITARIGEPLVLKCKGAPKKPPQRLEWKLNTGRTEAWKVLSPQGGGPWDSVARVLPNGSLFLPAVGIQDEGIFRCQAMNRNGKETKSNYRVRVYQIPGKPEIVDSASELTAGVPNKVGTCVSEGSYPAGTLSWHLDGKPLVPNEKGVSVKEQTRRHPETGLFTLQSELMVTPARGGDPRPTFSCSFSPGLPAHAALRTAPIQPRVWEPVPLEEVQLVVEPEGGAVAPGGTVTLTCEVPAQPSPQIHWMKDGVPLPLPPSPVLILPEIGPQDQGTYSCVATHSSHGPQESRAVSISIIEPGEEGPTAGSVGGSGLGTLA
Method: As shown in the dashed oval, the epitope of B2 mAb includes R216 and R218. Panel B depicts the binding of B2 mAbs to immobilized WT human RAGE or the R216A-R218A mutant as determined by ELISA. The binding of B2 mAbs to R216A-R218A was reduced by 40-fold.
200 ng of human RAGE extracellular domain or R216A-R218A mutant were immobilized onto 96-well high-binding ELISA plate. Plates were blocked with 5% BSA in PBS and incubated with 0.01 to 10 nM of rabbit B2 mAb for 1 hour at room temperature. Bound B2 mAbs were quantitated with anti-rabbit-HRP (Jackson Immunology) followed by the addition of HRP substrate (Thermo Scientific).

murine RAGE, sequence (Q62151 23-231 limits assumed): as the sequence (Q62151 23-231 limits assumed) above
T1 sequence (Q15109 23-342): as the sequence (Q15109 23-342 R216A/R218A) above, with A194R, A196R counted along it

Kd [1]: 0.08 nM
Kd [2]: 0.03 nM
Kd [3]: 0.08 nM
fold reduction of binding against WT human RAGE [4]: 40 fold
B1: rabbit B2 mAb (antibody, V domains shown)
VH: QSVKESEGGLFKPTDTLTLTCTVSGFTISSYDMSWVRQAPGKGLEWIGAIDSSGSAHYASWARSRSTITRNTNLNTVTLKMTSLTAADTATYFCWNANIWGPGTLVTVSS
VL: AQVLTQTASPVSAAVGSTVTINCQASQNVYDNNHLSWYQQKRGQPPKLLIYYASALASGVSSRFKGSGSGTQFTLTINDVQCDDAATYYCLGSYDCSADCFAFGGGTEVVV
notes: Rabbit monoclonal antibody from a hybridoma; also called B2 mAbs; rabbit mAb B2
